These results are taken from the supplement of paper PMC11316812.

One data set relates to MCF7. Put plainly: percentage of EdU-negative (G0-arrested) nuclei per well, 72 h; higher = more G0 arrest. The following applies: reference: sequence is the full UniProt precursor, the tested protein was the secreted form or ectodomain.
The next data set relates to hTERT-HMEC. The data set is described as above. The following applies: reference: sequence is the full UniProt precursor, the tested protein was the secreted form or ectodomain.
The mark [1] stands for this setting: protein concentration 0.03125 µM.
The mark [2] stands for this setting: protein concentration 0.3125 µM.
The mark [3] stands for this setting: protein concentration 0.0225 µM.
Setting [4] is: protein concentration 0.0322857 µM.
Setting [5] is: protein concentration 0.0337143 µM.
Where [6] appears, read: protein concentration 0.322857 µM.
[7] abbreviates: protein concentration 0.337143 µM.

± gives the standard deviation of the averaged measurements.
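Also: secreted proteins added to cultured cells, EdU pulse at the end, nuclei found by Hoechst imaging, EdU status from nuclear versus surrounding ring intensity ratio, PBS as neutral control.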

For the sequence “MLPLWTLSLLLGAVAGKEVCYERLGCFSDDSPWSGITERPLHILPWSPKDVNTRFLLYTNENPNNFQEVAADSSSISGSNFKTNRKTRFIIHGFIDKGEENWLANVCKNLFKVESVNCICVDWKGGSRTGYTQASQNIRIVGAEVAYFVEFLQSAFGYSPSNVHVIGHSLGAHAAGEAGRRTNGTIGRITGLDPAEPCFQGTPELVRLDPSDAKFVDVIHTDGAPIVPNLGFGMSQVVGHLDFFPNGGVEMPGCKKNILSQIVDIDGIWEGTRDFAACNHLRSYKYYTDSIVNPDGFAGFPCASYNVFTANKCFPCPSGGCPQMGHYADRYPGKTNDVGQKFYLDTGDASNFARWRYKVSVTLSGKKVTGHILVSLFGNKGNSKQYEIFKGTLKPDSTHSNEFDSDVDVGDLQMVKFIWYNNVINPTLPRVGASKIIVETNVGKQFNFCSPETVREEVLLTLTPC”, the “percentage of EdU-negative” value in the data set with MCF7 (setting [1]) amounted to 22.6 ± 0.74%; with MCF7 (setting [2]), 24.8 ± 1.1%; in the data set with hTERT-HMEC (setting [1]), 4.88 ± 0.32%; with hTERT-HMEC (setting [2]) it was 5.95 ± 0.29%.
On to “MLPPMALPSVSWMLLSCLILLCQVQGEETQKELPSPRISCPKGSKAYGSPCYALFLSPKSWMDADLACQKRPSGKLVSVLSGAEGSFVSSLVRSISNSYSYIWIGLHDPTQGSEPDGDGWEWSSTDVMNYFAWEKNPSTILNPGHCGSLSRSTGFLKWKDYNCDAKLPYVCKFKD [Q6UW15]”, for which the “percentage of EdU-negative” value in the data set on MCF7 (setting [3]) worked out at 25.43 ± 0.028%; in the data set with MCF7 (protein concentration 0.225 µM), 26.8 ± 1.6%; in the data set on hTERT-HMEC (setting [3]), 4.59 ± 0.17%; with hTERT-HMEC (protein concentration 0.225 µM), 5.21 ± 0.13%.
Regarding “MLPPMALPSVSWMLLSCLMLLSQVQGEEPQRELPSARIRCPKGSKAYGSHCYALFLSPKSWTDADLACQKRPSGNLVSVLSGAEGSFVSSLVKSIGNSYSYVWIGLHDPTQGTEPNGEGWEWSSSDVMNYFAWERNPSTISSPGHCASLSRSTAFLRWKDYNCNVRLPYVCKFTD”, the “percentage of EdU-negative” value in the data set on MCF7 (setting [4]) amounted to 24.2 ± 2.7%; in the data set on MCF7 (setting [5]), 24.3 ± 1.6%; in the data set on MCF7 (setting [6]) it was 26.7 ± 1.1%; in the data set with MCF7 (setting [7]), 27.4 ± 2.9%; with hTERT-HMEC (setting [4]), 5.46 ± 0.53%; with hTERT-HMEC (setting [5]), 5.04 ± 0.18%. In addition, the “percentage of EdU-negative” value in the data set with hTERT-HMEC (setting [6]) was 7.94 ± 0.33%; with hTERT-HMEC (setting [7]) it was 6.63 ± 1.3%.
Regarding “MLPPPRPAAALALPVLLLLLVVLTPPPTGARPSPGPDYLRRGWMRLLAEGEGCAPCRPEECAAPRGCLAGRVRDACGCCWECANLEGQLCDLDPSAHFYGHCGEQLECRLDTGGDLSRGEVPEPLCACRSQSPLCGSDGHTYSQICRLQEAARARPDANLTVAHPGPCESGPQIVSHPYDTWNVTGQDVIFGCEVFAYPMASIEWRKDGLDIQLPGDDPHISVQFRGGPQRFEVTGWLQIQAVRPSDEGTYRCLGRNALGQVEAPASLTVLTPDQLNSTGIPQLRSLNLVPEEEAESEENDDYY [Q96I82]”, the “percentage of EdU-negative” value was found to be 25.7 ± 0.96% in the data set with MCF7 (setting [3]), 28.1 ± 2.9% with MCF7 (protein concentration 0.225 µM), 5.43 ± 0.24% in the data set on hTERT-HMEC (setting [3]) and 5.18 ± 0.4% in the data set on hTERT-HMEC (protein concentration 0.225 µM).
For “MLPPWTLGLLLLATVRGKEVCYGQLGCFSDEKPWAGTLQRPVKLLPWSPEDIDTRFLLYTNENPNNFQLITGTEPDTIEASNFQLDRKTRFIIHGFLDKAEDSWPSDMCKKMFEVEKVNCICVDWRHGSRAMYTQAVQNIRVVGAETAFLIQALSTQLGYSLEDVHVIGHSLGAHTAAEAGRRLGGRVGRITGLDPAGPCFQDEPEEVRLDPSDAVFVDVIHTDSSPIVPSLGFGMSQKVGHLDFFPNGGKEMPGCKKNVLSTITDIDGIWEGIGGFVSCNHLRSFEYYSSSVLNPDGFLGYPCASYDEFQESKCFPCPAEGCPKMGHYADQFKGKTSAVEQTFFLNTGESGNFTSWRYKISVTLSGKEKVNGYIRIALYGSNENSKQYEIFKGSLKPDASHTCAIDVDFNVGKIQKVKFLWNKRGINLSEPKLGASQITVQSGEDGTEYNFCSSDTVEENVLQSLYPC”, in that order: 25.9 ± 0.35%, 26.41 ± 0.1%, 4.69 ± 0.62% and 5.7 ± 0.076%.
With “MLPRVGCPALPLPPPPLLPLLLLLLGASGGGGGARAEVLFRCPPCTPERLAACGPPPVAPPAAVAAVAGGARMPCAELVREPGCGCCSVCARLEGEACGVYTPRCGQGLRCYPHPGSELPLQALVMGEGTCEKRRDAEYGASPEQVADNGDDHSEGGLVENHVDSTMNMLGGGGSAGRKPLKSGMKELAVFREKVTEQHRQMGKGGKHHLGLEEPKKLRPPPARTPCQQELDQVLERISTMRLPDERGPLEHLYSLHIPNCDKHGLYNLKQCKMSLNGQRGECWCVNPNTGKLIQGAPTIRGDPECHLFYNEQQEARGVHTQRMQ”, the “percentage of EdU-negative” value in the data set with MCF7 (setting [1]) came to 27.7 ± 2.4%; with MCF7 (setting [2]) it was 31.1 ± 3.1%; in the data set on hTERT-HMEC (setting [1]), 4.88 ± 1%; with hTERT-HMEC (setting [2]) it was 6.96 ± 0.2%.
